Patent US20030147847A1 (IMMUNEX, published 2003)

T1: NKG2D/Dap10 on transfected 293E cells (UniProt P26718 1-216; Q9UBK5 19-93)
T1 construct: whole, on cells; Co-expressed on 293 EBNA (293E) cells from the pDC409 vector; also called NKG2D+FLAG tagged Dap10
T1 sequence 1: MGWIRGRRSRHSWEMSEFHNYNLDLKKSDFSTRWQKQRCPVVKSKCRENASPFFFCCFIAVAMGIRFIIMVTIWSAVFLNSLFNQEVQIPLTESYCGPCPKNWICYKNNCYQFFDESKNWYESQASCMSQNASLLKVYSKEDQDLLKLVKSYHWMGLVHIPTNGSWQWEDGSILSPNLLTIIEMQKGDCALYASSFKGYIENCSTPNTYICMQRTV
T1 sequence 2: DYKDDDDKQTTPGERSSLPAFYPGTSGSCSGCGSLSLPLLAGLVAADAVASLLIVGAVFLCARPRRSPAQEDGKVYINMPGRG

T2: NKG2D alone on transfected 293 EBNA cells (UniProt P26718 1-216, limits assumed)
T2 construct: whole, on cells
T2 sequence (looked up): T1 sequence 1

T3: FLAG tagged Dap10 alone on transfected 293 EBNA cells (UniProt Q9UBK5 19-93)
T3 construct: whole, on cells
T3 sequence: T1 sequence 2

B1: UL16-Fc fusion protein (Fc fusion)
chain: VDLGSKSSNSTCRLNVTELASIHPGETWTLHGMCISICYYENVTEDEIIGVAFTWQHNESVVDLWLYQNDTVIRNFSDITTNILQDGLKMRTVPVTKLYTSRMVTNLTVGRYDCLRCENGTTKIIERLYVRLGSLYPRPPGSGLAKHPSVSADEELSA
notes: extracellular domain; not shown: IgG1 Fc (mutein form), as described for OX40-Fc (Baum et al., EMBO J. 13:3992-4001, 1994); the mutein is described in p-
B2: MICB/Fc (Fc fusion, UniProt Q29980 23-309, looked up)
chain: AEPHSLRYNLMVLSQDGSVQSGFLAEGHLDGQPFLRYDRQKRRAKPQGQWAENVLGAKTWDTETEDLTENGQDLRRTLTHIKDQKGGLHSLQEIRVCEIHEDSSTRGSRHFYYDGELFLSQNLETQESTVPQSSRAQTLAMNVTNFWKEDAMKTKTHYRAMQADCLQKLQRYLKSGVAIRRTVPPMVNVTCSEVSEGNITVTCRASSFYPRNITLTWRQDGVSLSHNTQQWGDVLPDGNGTYQTWVATRIRQGEEQRFTCYMEHSGNHGTHPVPSGKALVLQSQRTD
notes: also called MICB1/FC; not shown: Fc portion not described
B3: human ULBP2-Fc fusion polypeptide (Fc fusion)
chain: WSRAGRADPHSLCYDITVIPKFRPGPRWCAVQGQVDEKTFLHYDCGNKTVTPVSPLGKKLNVTTAWKAQNPVLREVVDILTEQLRDIQLENYTPKEPLTLQARMSCEQKAEGHSSGSWQFSFDGQIFLLFDSEKRMWTTVHPGARKMKEKWENDKVVAMSFHYFSMGDCIGWLEDFLMGMDSTLEPSAGAPLAMSSGTTQLRRSCDKTHTCPPCPAPEAEGAPSVFLFPPKPKDTLMISRTPEVTCVVVDVSHEDPEVKFNWYVDGVEVHNAKTKPREEQYNSTYRVVSVLTVLHQDWLNGKEYKCKVSNKALPAPIEKTISKAKGQPREPQVYTLPPSRDELTKNQVSLTCLVKGFYPSDIAVEWESNGQPENNYKTTPPVLDSDGSFFLYSKLTVDKSRWQQGNVFSCSVMHEALHNHYTQKSLSLSPGK
notes: ULBP-2 extracellular domain (residues 1-223) fused to the human IgG1 Fc mutein
B4: Full length UL16 on transfected 293 EBNA cells (other)
chain: VDLGSKSSNSTCRLNVTELASIHPGETWTLHGMCISICYYENVTEDEIIGVAFTWQHNESVVDLWLYQNDTVIRNFSDITTNILQDGLKMRTVPVTKLYTSRMVTNLTVGRYDCLRCENGTTKIIERLYVRLGSLYPRPPGSGLAKHPSVSADEELSATLARDIVLVSAITLFFFLLALRIPQRLCQRLRIRLPHRYQRLRTED
notes: whole, on cells; also called UL16 FL
B5: MICA/Fc (Fc fusion, UniProt Q29983 24-307, looked up)
chain: EPHSLRYNLTVLSWDGSVQSGFLTEVHLDGQPFLRCDRQKCRAKPQGQWAEDVLGNKTWDRETRDLTGNGKDLRMTLAHIKDQKEGLHSLQEIRVCEIHEDNSTRSSQHFYYDGELFLSQNLETKEWTMPQSSRAQTLAMNVRNFLKEDAMKTKTHYHAMHADCLQELRRYLKSGVVLRRTVPPMVNVTRSEASEGNITVTCRASGFYPWNITLSWRQDGVSLSHDTQQWGDVLPDGNGTYQTWVATRICQGEEQRFTCYMEHSGNHSTHPVPSGKVLVLQSHW
notes: not shown: Fc portion not described
B6: human ULBP1-Fc fusion polypeptide (Fc fusion)
chain: WSRAGWVDTHCLCYDFIITPKSRPEPQWCEVQGLVDERPFLHYDCVNHKAKAFASLGKKVNVTKTWEEQTETLRDVVDFLKGQLLDIQVENLIPIEPLTLQARMSCEHEAHGHGRGSWQFLFNGQKFLLFDSNNRKWTALHPGAKKMTEKWEKNRDVTMFFQKISLGDCKMWLEEFLMYWEQMLDPTKPPSLAPGTTQPRSCDKTHTCPPCPAPEAEGAPSVFLFPPKPKDTLMISRTPEVTCVVVDVSHEDPEVKFNWYVDGVEVHNAKTKPREEQYNSTYRVVSVLTVLHQDWLNGKEYKCKVSNKALPAPIEKTISKAKGQPREPQVYTLPPSRDELTKNQVSLTCLVKGFYPSDIAVEWESNGQPENNYKTTPPVLDSDGSFFLYSKLTVDKSRWQQGNVFSCSVMHEALHNHYTQKSLSLSPGK
notes: ULBP-1 extracellular domain fused to the human IgG1 Fc mutein

Assays:
[1] = biological target: Full length UL16 on transfected 293 EBNA cells (human cytomegalovirus) (UniProt P16757); assay: flow cytometry, transfected 293 EBNA cells, 2 µg Fc protein + goat anti-human IgG PE
[2] = biological target: NKG2D/Dap10 on transfected 293E cells (UniProt P26718); assay: as above
[3] = biological target: FLAG tagged Dap10 alone on transfected 293 EBNA cells (UniProt Q9UBK5); assay: as above
[4] = biological target: NKG2D alone on transfected 293 EBNA cells (UniProt P26718); assay: as above
[5] = biological target: T1, NKG2D/Dap10 on transfected 293E cells; assay: flow cytometry; NKG2D/Dap10-transfected 293E cells, M1 + sheep anti-mouse IgG PE (expression control)
[6] = biological target: Full length UL16 on transfected 293 EBNA cells (human cytomegalovirus) (UniProt P16757); assay: flow cytometry, transfected 293 EBNA cells, M1 + sheep anti-mouse IgG PE
[7] = biological target: FLAG tagged Dap10 alone on transfected 293 EBNA cells (UniProt Q9UBK5); assay: as above
[8] = biological target: NKG2D alone on transfected 293 EBNA cells (UniProt P26718); assay: as above
[9] = biological target: T1, NKG2D/Dap10 on transfected 293E cells; assay: as above
[10] = biological target: T1, NKG2D/Dap10 on transfected 293E cells; assay: flow cytometry; NKG2D/Dap10-transfected 293E cells, M1 + sheep anti-mouse IgG PE (expression control); remark: listed apart in the source
[11] = biological target: T1, NKG2D/Dap10 on transfected 293E cells; assay: flow cytometry, transfected 293 EBNA cells, 2 µg Fc protein + goat anti-human IgG PE
[12] = biological target: T1, NKG2D/Dap10 on transfected 293E cells; assay: flow cytometry; NKG2D/Dap10-transfected 293E cells preincubated with 25 µg hCD40L/LZ (control blocking protein)
[13] = biological target: T1, NKG2D/Dap10 on transfected 293E cells; assay: flow cytometry; NKG2D/Dap10-transfected 293E cells preincubated with 25 µg ULBP1/LZ (competitor)
[14] = biological target: human ULBP2-Fc fusion polypeptide (human); assay: flow cytometry; ULBP2/FC preincubated with excess isotype control antibody, then added to 293E cells transfected with NKG2D/Dap10; goat anti-huIg PE
ULBP3/Fc (human) = ULBP3/Fc (human) (UniProt Q9BZM4); assay: flow cytometry; ULBP3/FC preincubated with excess isotype control antibody, then added to 293E cells transfected with NKG2D/Dap10; goat anti-huIg PE
PERB11/Fc = assay: flow cytometry; PERB11/FC preincubated with excess isotype control antibody, then added to 293E cells transfected with NKG2D/Dap10; goat anti-huIg PE
[15] = biological target: human ULBP1-Fc fusion polypeptide (human); assay: flow cytometry; ULBP1/FC preincubated with excess isotype control antibody, then added to 293E cells transfected with NKG2D/Dap10; goat anti-huIg PE
[16] = biological target: B4; assay: flow cytometry, transfected 293 EBNA cells, 2 µg Fc protein + goat anti-human IgG PE
[17] = biological target: T2, NKG2D alone on transfected 293 EBNA …; assay: as above
[18] = biological target: T3, FLAG tagged Dap10 alone on transfected …; assay: as above
MICA/Fc = biological target: B5; assay: flow cytometry on 293 EBNA cells transfected with full length UL16

ULBP3/Fc (human), sequence (Q9BZM4 30-217): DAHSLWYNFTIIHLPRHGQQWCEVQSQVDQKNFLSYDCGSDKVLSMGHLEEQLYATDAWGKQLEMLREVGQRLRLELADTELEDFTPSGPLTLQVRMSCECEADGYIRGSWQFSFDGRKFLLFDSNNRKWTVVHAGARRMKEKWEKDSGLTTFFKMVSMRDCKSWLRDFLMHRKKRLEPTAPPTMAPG

Molecule	Mean Fluorescence Intensity (MFI) [11]	Mean Fluorescence Intensity (MFI) [12]	Mean Fluorescence Intensity (MFI) [13]	Mean Fluorescence Intensity (MFI) [16]	Mean Fluorescence Intensity (MFI) [17]	Mean Fluorescence Intensity (MFI) [18]	other results
p7.5/Fc (Fc fusion)	–	–	–	–	–	–	Mean Fluorescence Intensity (MFI) [1]: 12.1 MFI; Mean Fluorescence Intensity (MFI) [2]: 12.2 MFI; Mean Fluorescence Intensity (MFI) [3]: 12.1 MFI; Mean Fluorescence Intensity (MFI) [4]: 9.99 MFI
M1 anti-FLAG antibody	–	–	–	–	–	–	Mean Fluorescence Intensity (MFI) [5]: 261 MFI; Mean Fluorescence Intensity (MFI) [6]: 11.3 MFI; Mean Fluorescence Intensity (MFI) [7]: 112 MFI; Mean Fluorescence Intensity (MFI) [8]: 8.49 MFI; Mean Fluorescence Intensity (MFI) [9]: 130 MFI; Mean Fluorescence Intensity (MFI) [10]: 368 MFI
PERB11/Fc (Fc fusion)	109 MFI	280 MFI	11 MFI	–	–	–	Mean Fluorescence Intensity (MFI) [1]: 161 MFI; Mean Fluorescence Intensity (MFI) [3]: 12.7 MFI; Mean Fluorescence Intensity (MFI) [4]: 10.2 MFI
antibody M90 (isotype matched control antibody)	–	–	–	–	–	–	MFI of staining protein on NKG2D/Dap10 cells after preincubation with blocking antibody [14]: 192 MFI; MFI of staining protein on NKG2D/Dap10 cells after preincubation with blocking antibody (ULBP3/Fc (human)): 160 MFI; MFI of staining protein on NKG2D/Dap10 cells after preincubation with blocking antibody (PERB11/Fc): 167 MFI; MFI of staining protein on NKG2D/Dap10 cells after preincubation with blocking antibody [15]: 216 MFI
B1	21.2 MFI	–	–	17.9 MFI	27.9 MFI	39.2 MFI	–
B2	118 MFI	258 MFI	9 MFI	94.5 MFI	9.58 MFI	18.4 MFI	–
B3	117 MFI	236 MFI	8 MFI	121 MFI	8.96 MFI	11.5 MFI	–
B4	–	–	–	–	–	–	binding result (MICA/Fc): no binding (tested: 2 µg)
B5	120 MFI	256 MFI	11 MFI	14 MFI	15.4 MFI	12 MFI	–
B6	115 MFI	263 MFI	11 MFI	142 MFI	10.4 MFI	13.6 MFI	–
